Reference: patent US7935343B2

Legend:
[1] = molecular target: human IL-13 variant (Q130R) with carboxyl terminus affinity tag (baculovirus expression) (human)
[2] = molecular target: non-human primate IL-13 (rhesus and cynomolgus, identical) with carboxyl terminus affinity tag (cynomolgus and rhesus monkey)
human IL-13 (human) [3] = molecular target: human IL-13 (human)
[4] = molecular target: native human IL-13 released from HDLM-2 cells (human)
human IL-13 (human) [5] = molecular target: human IL-13 (human); remark: listed apart in the source

Sequence of non-human primate IL-13 (rhesus and cynomolgus, identical) with carboxyl terminus affinity tag (cynomolgus and rhesus monkey) (chain, as listed by the source): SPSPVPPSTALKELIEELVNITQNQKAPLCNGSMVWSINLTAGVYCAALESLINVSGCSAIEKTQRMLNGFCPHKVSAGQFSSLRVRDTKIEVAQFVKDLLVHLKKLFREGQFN
Sequence of human IL-13 variant (Q130R) with carboxyl terminus affinity tag (baculovirus expression) (human) (chain, as listed by the source Q130R Q130R): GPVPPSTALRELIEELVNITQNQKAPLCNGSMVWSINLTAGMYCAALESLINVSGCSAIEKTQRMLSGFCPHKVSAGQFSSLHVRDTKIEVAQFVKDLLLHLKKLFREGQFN

Substance | IC50, TF-1 cell proliferation [1] [nM] | IC50, TF-1 cell proliferation [2] [nM] | IC50, TF-1 proliferation (human IL-13 (human) [3]) [nM] | IC50, HDLM-2 cell proliferation [4] [nM] | IC50, eotaxin release from NHLF (human IL-13 (human) [5]) [nM]
BAK502G9 IgG4 (antibody) | 1.9 | 2 |  |  | 
JES10-5A2 (rat IgG1, Biosource) (antibody) |  |  | 0.471 | 10.7 | 0.623
B-B13 (mouse IgG1, Euroclone) (antibody) |  |  | 1.02 | 16.7 | 0.219
